From US6858210B1, “Therapeutic and diagnostic domain 1 β2GPI polypeptides and methods of using same” (La Jolla Pharmaceutical Co., priority 1998, dated 2005)

Tests used:
[1] = test system: human β2GPI-dependent antiphospholipid antibody; assay: Micropanning of mutant domain 1 phage, patient antibodies; type: binding; conditions: Table 7B
rabbit anti-human β2GPI = assay: Micropanning of mutant domain 1 phage, rabbit antibody; type: binding; parameters: key: 0 (<10 colonies) to 4+ (confluent) semiquantitative colony score; conditions: Table 7B
Description: Error prone PCR was carried out as follows. Domain 1 of human β2GPI was amplified by PCR under conditions that enhance the error rate of Taq polymerase. The primers were such that amino acids 1-64 were amplified. A Sfc 1 restriction site was incorporated as part of amino acid 1. At the 3′ end a Sal 1 restriction site was incorporated after amino acid 64. The PCR reaction was done as described by Leung et al. (1989) Technique 1:11, using 0.25 mM MnCl2. The PCR product was digested with Sfc 1 and Sal 1 and cloned into fd-tet-DOG2 that had been digested with Apal 1 and Sal 1. This positions domain 1 at the N-terminus of pill immediately after the pill signal sequence. The ligation reaction was electroporated in E. coli K91. Phage were harvested and titered by standard methods. Resulting phage clones were assayed using a micropanning technique.
Immulon type 2 plates were coated with protein G. Protein G was prepared at 5 μg/mL in 0.1 M NaHCO3 and 100 μL per well was added to the wells of microtitration plates and incubated overnight at 4° C. After discarding excess protein G solution from plates, each well was blocked with 200 μL 2YT for 1 hour at RT with agitation on an oscillating platform. Tris-buffered saline, pH 7.4/0.5% Tween 20 (TBS/Tween), was used with an automatic plate washer to wash the wells 4 times with 200 μL. One hundred μL human β2GPI-dependent antiphospholipid 6626, 6501, 6701, rabbit β2GPI-dependent antiphospholipid, or control normal IgG, diluted to 2.5 μg/mL with 2YT, was added to washed wells. The plate was incubated for 1 hour at room temperature on a rotating platform.
Phage to be tested by micropanning were obtained from the agar plates generated by biopanning. Each clone to be tested was transferred using sterile toothpicks to a separate well of a round-bottom 96-well microtitration plate (Corning, Corning, N.Y.) containing 200 μL 2YT/Tet per well and cultured overnight at 30° C. Following overnight incubation, phage cultures were centrifuged using a microtitration plate holder at 1300×g for 10 minutes at room temperature. Supernatants constituted the source of “neat” phage. The neat phage were diluted 1: 100-1:1000 and 100 μL was added to the plate containing protein G-bound β2GPI-dependent antiphospholipid antibody-6501 and normal IgG prepared as described above. The incubation of dilute phage with aPL antibody or control IgG was carried out for 2 hours at room temperature on a flat rotator. After 9 washes with TBS/Tween in an automated plate washer, the IgG-bound phage was eluted with 20 μL of 0.2 N HCl-glycine/0.1% BSA, pH 2.2. The elution incubation continued for 10 minutes at RT, during which time a new Corning microtitration plate was prepared containing 20 μL of freshly starved E. coli per well and kept chilled. One hundred forty μL of 29 mM Tris was added to the plate containing the phage eluates in order to neutralize the pH, following which 20 μL of phage suspension was transferred from each well to the corresponding well in the plate containing starved E. coli. After a 10 minute incubation at 37° C., 200 μL 2YT was added and incubation carried out an additional 30 minutes at 37° C. Using multichannel pipettors, 8 μL from each well was spotted on a large 2YT/Tet agar plate while retaining the original 8×12 well pattern and orientation from the last microtitration plate. After allowing the spots to dry for 30 minutes, the plate was incubated overnight at 30° C. The following day, colonies were semiquantitatively scored from 0 to 4+, with 0 symbolizing <10 colonies; 1+=10-30; 2+=30 colonies to 70% confluent; 3+=70%-90% confluent; 4+=confluent.
For Table 7A, the rabbit anti-human β2GPI was performed on two separate occasions. Mutations are listed with the original amino acid, the position number, and the identity of the amino acid at that position in the mutant. […] Non-mutated domain 1 have a score of 3+, while domain 5 phage gave a score of −. Silent mutations are not shown. […]

Measured: Micropan score

B1: 4G8: phage clone, domain 1 mutant P11L (protein)
chain: GRTCPKPDDLLFSTVVPLKTFYEPGEEITYSCKPGYVSRGGMRKFICPLTGLWPINTLKCTPRVAETVESCLAKLHTENSFTNVWKDDKTLDRYANYEGCLWNATGVVVCTGDETQCYGTWVPIGLAIPENEGGGSEGGGSEGGGSEGGGTKPPEYGDTPIPGYTYINPLDGTYPPGTEQNPANPNPSLEESQPLNTFMFQNNRFRNRQGALTVYTGTVTQGTDPVKTYYQYTPVSSKAMYDAYWNGKFRDCAFHSGFNEDPFVCEYQGQSSDLPQPPVNAGGGSGGGSGGGSEGGGSEGGGSEGGGSEGGGSGGGSGSGDFDYEKMANANKGAMTENADENALQSDAKGKLDSVATDYGAAIDGFIGDVSGLANGNGATGDFAGSNSQMAQVGDGDNSPLMNNFRQYLPSLPQSVECRPYVFGAGKPYEFSIDCDKINLFRGVFAFLLYVATFMYVFSTFANILRNKES
4: rabbit anti-human β2GPI; 5th column
2: [1]; antibody 6226 | [1]; antibody 6501 | [1]; antibody 6632 | [1]; antibody 6701
3: [1]; antibody 6644 | [1]; antibody 7008

B2: Dom5: phage displaying wild type (WT) domain 5 (protein)
chain: CKLPVKKATVVYQGERVKIQEKFKNGMLHGDKVSFFCKNKEKKCSYTEDAQCIDGTIEVPKCFKEHSSLAFWKTDASDVKPC
modifications: left off: large carriers
4: rabbit anti-human β2GPI; 1st column | rabbit anti-human β2GPI; 2nd column | rabbit anti-human β2GPI; 3rd column | rabbit anti-human β2GPI; 4th column
0 (0 symbolizing <10 colonies): [1]; antibody 6226 | [1]; antibody 6501 | [1]; antibody 6632 | [1]; antibody 6644 | [1]; antibody 6701 | [1]; antibody 7008 | rabbit anti-human β2GPI; 5th column

B3: 3C3: phage clone, domain 1 mutant L52P (protein)
chain: GRTCPKPDDLPFSTVVPLKTFYEPGEEITYSCKPGYVSRGGMRKFICPLTGPWPINTLKCTPRV
4: rabbit anti-human β2GPI; 5th column
1: [1]; antibody 6226 | [1]; antibody 6501 | [1]; antibody 6644 | [1]; antibody 6701 | [1]; antibody 7008
0 (0 symbolizing <10 colonies): [1]; antibody 6632

B4: 3F12: phage clone, domain 1 multiple mutant L10I, P17Q, Y22C (protein)
chain: GRTCPKPDDIPFSTVVQLKTFCEPGEEITYSCKPGYVSRGGMRKFICPLTGLWPINTLKCTPRV
4: rabbit anti-human β2GPI; 5th column
1: [1]; antibody 6226 | [1]; antibody 6501 | [1]; antibody 6632 | [1]; antibody 6644 | [1]; antibody 6701 | [1]; antibody 7008

B5: 3A4: phage clone, domain 1 multiple mutant D8A, S13T (protein)
chain: GRTCPKPADLPFTTVVPLKTFYEPGEEITYSCKPGYVSRGGMRKFICPLTGLWPINTLKCTPRV
4: [1]; antibody 6644 | rabbit anti-human β2GPI; 5th column
3: [1]; antibody 6226 | [1]; antibody 6501 | [1]; antibody 6632 | [1]; antibody 6701 | [1]; antibody 7008

B6: 4A6: phage clone, domain 1 mutant D8G (protein)
chain: GRTCPKPGDLPFSTVVPLKTFYEPGEEITYSCKPGYVSRGGMRKFICPLTGLWPINTLKCTPRV
2: [1]; antibody 6226 | [1]; antibody 6501 | [1]; antibody 6632 | [1]; antibody 6701 | [1]; antibody 7008
3: [1]; antibody 6644
4: rabbit anti-human β2GPI; 5th column

B7: 3G1: phage clone, domain 1 multiple mutant R2W, S38T (protein)
chain: GWTCPKPDDLPFSTVVPLKTFYEPGEEITYSCKPGYVTRGGMRKFICPLTGLWPINTLKCTPRV
1: [1]; antibody 6226 | [1]; antibody 6501 | [1]; antibody 6632 | [1]; antibody 6644 | [1]; antibody 6701 | [1]; antibody 7008
4: rabbit anti-human β2GPI; 5th column

B8: 4D1: phage clone, domain 1 multiple mutant N56T, R63G (protein)
chain: GRTCPKPDDLPFSTVVPLKTFYEPGEEITYSCKPGYVSRGGMRKFICPLTGLWPITTLKCTPGV
3: [1]; antibody 6632
4: [1]; antibody 6226 | [1]; antibody 6644 | [1]; antibody 6701 | rabbit anti-human β2GPI; 5th column
2: [1]; antibody 6501 | [1]; antibody 7008

B9: SC10: phage clone, domain 1 mutant N56D (protein)
chain: GRTCPKPDDLPFSTVVPLKTFYEPGEEITYSCKPGYVSRGGMRKFICPLTGLWPIDTLKCTPRV
4: [1]; antibody 7008 | rabbit anti-human β2GPI; 1st column | rabbit anti-human β2GPI; 2nd column | rabbit anti-human β2GPI; 3rd column | rabbit anti-human β2GPI; 4th column
3: [1]; antibody 6226 | [1]; antibody 6501 | [1]; antibody 6632 | [1]; antibody 6644 | [1]; antibody 6701
